Test results published in US20060093670A1, “Sustained-release composition process for producing the same and preparation thereof” (priority 2002, published 2006).

Legend:
[1] = Effect of Zn concentration on sustained release of IFN-HAp preparation (IFN α blood level, Example 3); type: in vivo, ddy mouse; details: IFN α/HSA/CS in HAp, freeze-dried, subcutaneous, 4 hours and 1 to 7 days, FIG. 3
Description: 0.06 ml of 0.937 mg/ml IFN α, 0.3 ml of 20 mg/ml HSA, 0.03 ml of 20 mg/ml CS, and 1.22 ml of H2O were added to prepare a solution. 200 mg of HAp sintered at 180° C. was added on this solution. A protein was entrapped in HAp by stirring, and then 10 ml of H2O was added. The mixture was lightly stirred and centrifuged at 3,000 rpm for five minutes.
The deposit was freeze-dried and divided in two. 1 ml of a 20 mM Zn(CH3COO)2/5% mannitol solution was added to one division, while 1 ml of a 5 mM Zn(CH3COO)2/5% mannitol solution was added to the other division.
As a control, 0.015 ml of 0.937 mg/ml IFN α, 0.075 ml of 20 mg/ml HSA, 0.66 ml of H2O and 0.25 ml of 20% mannitol were added to prepare an IFN α (free) solution.
(§1) 0.7 ml of the sample prepared above was subcutaneously administered to a seven-week-old male ddy mouse (weight: 31 to 33 g, SLC, Japan). Four hours and one to seven days after the administration, blood was collected from the orbit of the mouse. The IFN α concentration in this blood was determined using an ELISA kit (Biosource).

[2] = Percent elution of IFN entrapped onto HAP in PBS containing 20% FCS; type: physicochemical; details: 37° C., 16 hours
Description: 45 mg of porous hydroxyapatite (HAP) was accurately weighed. 30 μg of IFN from a 2.4 mg/ml interferon a (IFN) solution was added thereto, and the mixture was allowed to stand for 10 minutes. […] This dispersion was washed by addition of 1.5 ml of water. When IFN in the washed solution was quantitatively determined, IFN was not detected. Specifically, all IFN was confirmed to be entrapped on HAP. In this manner, a microparticle preparation on which IFN as a protein was entrapped could be obtained without using an organic solvent. After the washing, 20 ml of a PBS solution containing FCS in an amount of 20% was added to the resulting powder, and the mixture was shaken at 37° C. for 16 hours. IFN eluted in the supernatant liquid was quantitatively determined to calculate the percent elution.

[3] = IFN α blood level after subcutaneous administration of IFN α-HAp preparation (Example 2); type: in vivo, ddy mouse; details: IFN α with HSA, chondroitin sulfate and Zn(CH3COO)2 in HAp sintered at 180° C., 4 hours and 1 to 10 days, ELISA, FIG. 2
Description: 0.854 ml of 225 μg/ml IFN α (interferon α, Sumitomo Pharmaceuticals) and 1.2 ml of 20 mg/ml HSA were mixed to prepare a protein-mixed solution. 0.856 ml of the protein-mixed solution was mixed with 200 mg of HAp sintered at 180° C., and the mixture was stirred to entrap a protein in HAp. 0.05 ml of 20 mg/ml chondroitin sulfate (CS, from Wako), 0.074 ml of H2O, and 0.02 ml of 1 M Zn(CH3COO)2 were sequentially added thereto. The mixture was centrifuged at 15,000 rpm for five minutes. 2 ml of a 20 mM Zn(CH3COO)2/5% mannitol solution was added to the deposit to prepare a sample.
As a control, 0.644 ml of H2O and 0.5 ml of 20% mannitol were added to 0.856 ml of an IFN α-containing protein-mixed solution to prepare an IFN α (free) solution.
as §1, with “0.5” for “0.7”, “an eight-week-old” for “a seven-week-old”, “33” for “31”, “40” for “33”, “ten” for “seven”

[4] = Entrapment of IFN on HAP (IFN in the washed solution); type: physicochemical; details: 30 μg IFN on 45 mg HAP, 20 mM zinc acetate, washed with 1.5 ml water
Description: 45 mg of porous hydroxyapatite (HAP) was accurately weighed. 30 μg of IFN from a 2.4 mg/ml interferon a (IFN) solution was added thereto, and the mixture was allowed to stand for 10 minutes. Then, 1 ml of a 20 mM/1 ml zinc acetate solution was added thereto, and the mixture was shaken for 30 minutes. This dispersion was washed by addition of 1.5 ml of water. When IFN in the washed solution was quantitatively determined, IFN was not detected. Specifically, all IFN was confirmed to be entrapped on HAP. In this manner, a microparticle preparation on which IFN as a protein was entrapped could be obtained without using an organic solvent. After the washing, 20 ml of a PBS solution containing FCS in an amount of 20% was added to the resulting powder, and the mixture was shaken at 37° C. for 16 hours. IFN eluted in the supernatant liquid was quantitatively determined to calculate the percent elution.

[5] = prior-art two-component apatite particles; cited from earlier work
[6] = PC-BDNF blood level after subcutaneous administration of PC-BDNF-HAp preparation; type: in vivo, ddy mouse; details: PC-BDNF in HAp sintered at 180° C. with HSA and 5 mM Zn(CH3COO)2/5% mannitol, 2 hours to 4 days, ELISA, FIG. 1
Description: 66 μl of a 4.54 mg/ml PC-BDNF (lecithinized BDNF) solution was added to 20 mg of porous hydroxyapatite microparticles (HAp) sintered at 180° C., and the mixture was stirred using a vortex mixer for one minute. 434 μl of a 0.1% HSA solution was added thereto, and the mixture was stirred again for one minute. The mixture was allowed to stand for three minutes, and then centrifuged at 1,000 rpm for three minutes to remove the supernatant liquid. 500 μl of a 5 mM Zn(CH3COO)2/5% mannitol solution was added to the deposit, and the mixture was stirred to prepare a sample. As a control, a sample in which 66 μl of a 4.54 mg/ml PC-BDNF solution was mixed with 434 μl of 5% mannitol was also prepared. 500 μl of each sample was subcutaneously administered to a six-week-old male ddy mouse. Two hours, seven hours, 17 hours, one day, two days, and four days after the administration, blood was collected from the orbit to determine the PC-BDNF blood level using an ELISA kit (Promega).

[7] = In vitro release test of G-CSF from HAp in PBS, embolized versus not embolized; type: physicochemical; details: embolized (HSA, CaCl2, then Na2CO3) versus not embolized, room temperature, ELISA, FIG. 4
Description: 100 μl of a preliminarily mixed solution of G-CSF (3 μg/ml), HSA (30 μg/ml), and CaCl2 (280 mg/ml) was added to 50 mg of HAp sintered at 180° C. The mixture was stirred using a vortex mixer for three minutes, allowed to stand for five minutes, and freeze-dried. 100 μl of a 220 mg/ml Na2CO3 solution was added to the resulting particles, and the mixture was stirred using a vortex mixer for three minutes. After further addition of 100 μl of water, the mixture was lightly stirred. A part of the mixture was collected for ELISA determination. The remaining part was centrifuged at 1,000 rpm for three minutes to collect the supernatant liquid. 2 ml of PBS was added to the deposit, and the mixture was lightly shaken at room temperature. After 0 hour and 0.5 hour, respectively, the supernatant liquid was collected. Further, 10 ml of PBS was added to the deposit, and the mixture was shaken at room temperature. After 0 hour and 0.5 hour, respectively, the supernatant liquid was collected. The final deposit and the supernatant liquids obtained on the way were subjected to determination using an ELISA kit (IBL). The final deposit was dissolved in 1% BSA/Tris-HCl (pH 5) and used for the ELISA determination. The results are shown in FIG. 4-A. 200 μl of a 1.5 μg/ml G-CSF solution was added to 50 mg of HAp to fill the pores, and 2 ml of PBS was added further. The same release test was conducted.

[8] = Adsorption of G-CSF on hydroxyapatite preliminarily treated with zinc acetate; type: physicochemical; details: for Amount of adsorbed G-CSF / Amount of free G-CSF: 10 mg hydroxyapatite bound with zinc
Description: Then, the following procedure was conducted to attempt adsorption of zinc on hydroxyapatite particles and adsorption of G-CSF on the particles. 10 mg of hydroxyapatite was suspended in 200 μl of zinc acetate (5 mg/ml). The suspension was allowed to stand for 10 minutes at room temperature, and then centrifuged at 10,000 rpm for 10 minutes to discard the supernatant liquid. The precipitate was suspended in 500 μl of purified water. The suspension was allowed to stand for 10 minutes at room temperature, and then centrifuged at 10,000 rpm for 10 minutes to discard the supernatant liquid. After the sediment was suspended and centrifuged again, the supernatant liquid was discarded. This precipitate was suspended in 0.5 ml of a 200 μg/ml or 1,000 μg/ml G-CSF solution. The suspension was allowed to stand for 10 minutes, and then centrifuged at 10,000 rpm for 10 minutes. The amount of G-CSF in the supernatant liquid was determined by an ELISA method. Further, G-CSF entrapped in hydroxyapatite was eluted from the precipitate using 0.1 M EDTA and a 1% HAS solution, and the eluate was centrifuged. Then, the G-CSF concentration in the supernatant liquid was determined by an ELISA method to determine the amount of G-CSF adsorbed on hydroxyapatite.

[9] = Adsorption of G-CSF on hydroxyapatite particles without zinc; type: physicochemical; details: 40 mg hydroxyapatite particles, 100 μl of G-CSF solution (100 μg/ml), no zinc; eluted with pH 4 acetic acid buffer; ELISA
Description: 40 mg of hydroxyapatite particles were immersed in 100 μl of a G-CSF solution (100 μg/ml) for 10 minutes. Then, 900 μl of purified water was added, and the mixture was stirred and centrifuged. Then, the supernatant liquid was discarded. Purified water was added to the precipitate again, and the mixture was stirred and centrifuged to remove the excessive G-CSF.
The precipitate was suspended in a pH 4 acetic acid buffer to elute G-CSF. After centrifugation, the amount of G-CSF in the supernatant liquid was determined by ELISA to determine the amount of G-CSF adsorbed. Almost no adsorption was observed (0.1 μg or less).

Molecule: IFN α
- IFN α blood level ([1]; zinc 5 mM): sufficiently increased, but was reduced comparatively rapidly
- IFN α blood level ([1]; zinc 20 mM): not sufficiently increased, but IFN α was released slowly for a long time
- Eluted IFN (%) ([2]; Zinc acetate 0 mM): 92%
- Eluted IFN (%) ([2]; Zinc acetate 20 mM): 87%
- IFN α concentration in blood, sustained-release effect [3]: excellent sustained-release effect
- IFN in the washed solution [4]: not detected

Molecule: hGH: human growth hormone, on prior-art apatite particles
- Amount of hGH adsorbed on the apatite particles (entrapped amount) [5]: ≤ 1%

B1: PC-BDNF: lecithinized BDNF; tested entrapped in HAp with HSA and zinc acetate (PC-BDNF-HAp preparation) (conjugate, UniProt P23560 19-247, looked up)
Neurotrophic factor BDNF …: APMKEANIRGQGGLAYPGVRTHGTLESVNGPKAGSRGLTSLADTFEHVIEELLDEDQKVRPNEENNKDADLYTSRVMLSSQVPLEPPLLFLLEEYKNYLDAANMSMRVRRHSDPARRGELSVCDSISEWVTAADKKTAVDMSGGTVTVLEKVPVSKGQLKQYFYETKCNPMGYTKEGCRGIDKRHWNSQCRTTQSYVRALTMDSKKRIGWRFIRIDTSCVCTLTIKRGR
modifications: lecithinized; entrapped in hydroxyapatite
- PC-BDNF blood level, sustained-release effect [6]: excellent sustained-release effect

B2: G-CSF: G-CSF protein loaded into or adsorbed on hydroxyapatite microparticles (protein, UniProt P09919 31-207, looked up)
Granulocyte …: TPLGPASSLPQSFLLKCLEQVRKIQGDGAALQEKLVSECATYKLCHPEELVLLGHSLGIPWAPLSSCPSQALQLAGCLSQLHSGLFLYQGLLQALEGISPELGPTLDTLQLDVADFATTIWQQMEELGMAPALQPTQGAMPAFASAFQRRAGGVLVASHLQSFLEVSYRVLRHLAQP
modifications: adsorbed on hydroxyapatite microparticles
- Release of G-CSF from HAp [7]: release was remarkably suppressed
- Amount of adsorbed G-CSF ([8]; total amount of G-CSF 100 μg): 86.4 µg
- Amount of free G-CSF ([8]; total amount of G-CSF 100 μg): 0.4 µg
- Amount of adsorbed G-CSF ([8]; total amount of G-CSF 500 μg): 400.0 µg
- Amount of free G-CSF ([8]; total amount of G-CSF 500 μg): 90.0 µg
- Maximum amount of G-CSF adsorbed ([8]; on 10 mg of hydroxyapatite): 400 µg
- Amount of G-CSF adsorbed [9]: ≤ 0.1 µg
